Experimental data published in IntAct's records for PubMed 29892012.

B1: Keratin, type I cuticular Ha8 (Homo sapiens), O76015 (parent)
chain: MTSSYSSSSCPLGCTMAPGARNVSVSPIDIGCQPGAEANIAPMCLLANVAHANRVRVGSTPLGRPSLCLPPTCHTACPLPGTCHIPGNIGICGAYGENTLNGHEKETMQFLNDRLANYLEKVRQLEQENAELEATLLERSKCHESTVCPDYQSYFHTIEELQQKILCSKAENARLIVQIDNAKLAADDFRIKLESERSLRQLVEADKCGTQKLLDDATLAKADLEAQQESLKEEQLSLKSNHEQEVKILRSQLGEKLRIELDIEPTIDLNRVLGEMRAQYEAMLETNRQDVEQWFQAQSEGISLQDMSCSEELQCCQSEILELRCTVNALEVERQAQHTLKDCLQNSLCEAEDRFGTELAQMQSLISNVEEQLSEIRADLERQNQEYQVLLDVKTRLENEIATYRNLLESEDCKLPCNPCSTSPSCVTAPCAPRPSCGPCTTCGPTCGASTTGSRF
partner: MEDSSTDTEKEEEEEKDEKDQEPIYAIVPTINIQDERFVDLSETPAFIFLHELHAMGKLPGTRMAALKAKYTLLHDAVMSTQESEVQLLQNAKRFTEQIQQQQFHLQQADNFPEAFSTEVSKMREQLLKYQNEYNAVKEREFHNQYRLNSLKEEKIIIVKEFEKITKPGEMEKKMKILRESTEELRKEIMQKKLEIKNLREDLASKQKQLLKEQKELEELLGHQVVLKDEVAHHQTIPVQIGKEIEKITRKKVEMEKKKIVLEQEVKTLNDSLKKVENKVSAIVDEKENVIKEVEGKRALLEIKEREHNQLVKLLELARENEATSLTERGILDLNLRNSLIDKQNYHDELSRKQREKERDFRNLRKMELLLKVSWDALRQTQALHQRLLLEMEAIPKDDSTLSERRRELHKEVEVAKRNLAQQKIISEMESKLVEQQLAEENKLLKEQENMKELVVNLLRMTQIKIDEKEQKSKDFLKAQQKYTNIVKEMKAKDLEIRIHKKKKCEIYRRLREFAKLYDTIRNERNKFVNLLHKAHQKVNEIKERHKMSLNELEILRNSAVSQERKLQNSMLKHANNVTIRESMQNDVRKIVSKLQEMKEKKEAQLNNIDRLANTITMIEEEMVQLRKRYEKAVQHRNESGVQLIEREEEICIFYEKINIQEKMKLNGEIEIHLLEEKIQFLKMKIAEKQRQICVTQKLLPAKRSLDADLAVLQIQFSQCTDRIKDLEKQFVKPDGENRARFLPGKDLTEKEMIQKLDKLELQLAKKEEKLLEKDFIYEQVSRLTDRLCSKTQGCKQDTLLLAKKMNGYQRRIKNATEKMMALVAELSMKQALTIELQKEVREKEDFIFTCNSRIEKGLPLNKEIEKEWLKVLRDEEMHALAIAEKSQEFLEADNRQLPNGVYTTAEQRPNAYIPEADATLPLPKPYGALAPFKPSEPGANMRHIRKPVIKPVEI
B2: Genetic suppressor element 1 (Homo sapiens), Q14687 (parent)
chain: MKGMSHEPKSPSLGMLSTATRTTATVNPLTPSPLNGALVPSGSPATSSALSAQAAPSSSFAAALRKLAKQAEEPRGSSLSSESSPVSSPATNHSSPASTPKRVPMGPIIVPPGGHSVPSTPPVVTIAPTKTVNGVWRSESRQDAGSRSSSGGRERLIVEPPLPQEKAGGPAIPSHLLSTPYPFGLSPSSVVQDSRFPPLNLQRPVHHVVPPSTVTEDYLRSFRPYHTTDDLRMSSLPPLGLDPATAAAYYHPSYLAPHPFPHPAFRMDDSYCLSALRSPFYPIPTPGSLPPLHPSAMHLHLSGVRYPPELSHSSLAALHSERMSGLSAERLQMDEELRREREREREREREREADREREKEREREREKEREQEKEREREKERERELERQREQRAREKELLAAKALEPSFLPVAELHGLRGHATEERGKPSEQLTPTRAEKLKDAGLQAPKPVQHPLHPVPTPHHTVPSLISNHGIFSLPSSSAATALLIQRTNEEEKWLARQRRLRQEKEDRQSQVSEFRQQVLEQHLDMGRPPVPAEAEHRPESTTRPGPNRHEPGGRDPPQHFGGPPPLISPKPQLHAAPTALWNPVSLMDNTLETRRAESHSLHSHPAAFEPSRQAAVPLVKVERVFCPEKAEEGPRKREPAPLDKYQPPPPPPREGGSLEHQPFLPGPGPFLAELEKSTQTILGQQRASLPQAATFGELSGPLKPGSPYRPPVPRAPDPAYIYDEFLQQRRRLVSKLDLEERRRREAQEKGYYYDLDDSYDESDEEEVRAHLRCVAEQPPLKLDTSSEKLEFLQLFGLTTQQQKEELVAQKRRKRRRMLRERSPSPPTIQSKRQTPSPRLALSTRYSPDEMNNSPNFEEKKKFLTIFNLTHISAEKRKDKERLVEMLRAMKQKALSAAVADSLTNSPRDSPAVSLSEPATQQASLDVEKPVGVAASLSDIPKAAEPGKLEQVRPQELSRVQELAPASGEKARLSEAPGGKKSLSMLHYIRGAAPKDIPVPLSHSTNGKSKPWEPFVAEEFAHQFHESVLQSTQKALQKHKGSVAVLSAEQNHKVDTSVHYNIPELQSSSRAPPPQHNGQQEPPTARKGPPTQELDRDSEEEEEEDDEDGEDEEEVPKRKWQGIEAVFEAYQEHIEEQNLERQVLQTQCRRLEARHYSLSLTAEQLSHSVAELRSQKQKMVSERERLQAELDHLRKCLALPAMHWPRGYLKGYPR
partner: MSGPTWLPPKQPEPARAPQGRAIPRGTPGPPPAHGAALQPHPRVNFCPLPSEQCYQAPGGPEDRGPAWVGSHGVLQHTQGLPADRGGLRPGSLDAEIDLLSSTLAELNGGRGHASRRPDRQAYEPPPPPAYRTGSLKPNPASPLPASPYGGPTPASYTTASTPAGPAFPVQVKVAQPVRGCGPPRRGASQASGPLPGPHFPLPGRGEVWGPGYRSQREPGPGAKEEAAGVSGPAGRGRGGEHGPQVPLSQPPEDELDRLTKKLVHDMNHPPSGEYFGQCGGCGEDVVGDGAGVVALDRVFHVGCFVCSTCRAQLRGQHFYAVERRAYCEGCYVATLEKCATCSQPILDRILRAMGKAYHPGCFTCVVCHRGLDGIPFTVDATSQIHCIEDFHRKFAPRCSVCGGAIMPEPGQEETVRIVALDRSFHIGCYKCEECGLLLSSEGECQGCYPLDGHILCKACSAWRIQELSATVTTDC
B3: Coiled-coil domain-containing protein 120 (Homo sapiens), Q96HB5-4 (parent)
chain: MRREPRYQGQVGPDIHTDSERTLSSHQPRPLDSTKMEVKGQLISSPTFNAPAALFGEAAPQVKSERLRGLLDRQRTLQEALSLKLQELRKVCLQEAELTGQLPPECPLEPGERPQLVRRRPPTARAYPPPHPNQAHHSLCPAEELALEALEREVSVQQQIAAAARRLALAPDLSTEQRRRRRQVQADALRRLHELEEQLRDVRARLGLPVLPLPQPLPLSTGSVITTQGVCLGMRLAQLSQEDVVLHSESSSLSESGASHDNEEPHGCFSLAERPSPPKAWDQLRAVSGGSPERRTPWKPPPSDLYGDLKSRRNSVASPTSPTRSLPRSASSFEGRSVPATPVLTRGAGPQLCKPEGLHSRQWSGSQDSQMGFPRADPASDRASLFVARTRRSNSSEALLVDRAAGGGAGSPPAPLAPSASGPPVCKSSEVLYERPQPTPAFSSRTAGPPDPPRAARPSSAAPASRGAPRLPPVCGDFLLDYSLDRGLPRSGGGTGWGELPPAAEVPGPLSRRDGLLTMLPGPPPVYAADSNSPLLRTKDPHTRATRTKPCGLPPEAAEGPEVHPNPLLWMPPPTRIPSAGERSGHKNLALEGLRDWYIRNSGLAAGPQRRPVLPSVGPPHPPFLHARCYEVGQALYGAPSQAPLPHSRSFTAPPVSGRYYADFLYPPELSARLSDLTLEGEQSSSSDTQTPGTLV
partner: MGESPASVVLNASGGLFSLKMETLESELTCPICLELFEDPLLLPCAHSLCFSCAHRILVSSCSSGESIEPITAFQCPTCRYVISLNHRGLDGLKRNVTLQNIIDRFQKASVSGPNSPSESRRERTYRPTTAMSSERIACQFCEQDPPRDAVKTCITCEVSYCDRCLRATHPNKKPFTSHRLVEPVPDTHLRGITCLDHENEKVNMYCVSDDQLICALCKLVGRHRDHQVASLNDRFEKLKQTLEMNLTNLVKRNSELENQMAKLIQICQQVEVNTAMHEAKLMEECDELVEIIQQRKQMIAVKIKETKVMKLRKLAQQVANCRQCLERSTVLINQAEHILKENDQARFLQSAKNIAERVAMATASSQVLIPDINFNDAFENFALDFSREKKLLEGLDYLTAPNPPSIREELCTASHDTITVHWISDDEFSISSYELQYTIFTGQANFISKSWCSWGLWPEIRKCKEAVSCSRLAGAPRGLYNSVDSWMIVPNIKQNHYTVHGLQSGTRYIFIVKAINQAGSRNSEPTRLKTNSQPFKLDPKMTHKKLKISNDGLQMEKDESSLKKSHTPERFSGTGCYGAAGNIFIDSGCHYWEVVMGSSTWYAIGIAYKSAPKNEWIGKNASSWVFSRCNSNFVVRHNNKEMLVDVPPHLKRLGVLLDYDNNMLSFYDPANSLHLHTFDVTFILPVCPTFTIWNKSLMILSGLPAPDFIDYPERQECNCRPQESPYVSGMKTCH

Variants of: B1
Details: with cc146_human CCDC146, Q8IYE0

| Variant | effect of a mutation on the interaction |
| --- | --- |
| D306A | with no effect |

Variants of: B1
Details: with cc146_human CCDC146, Q8IYE0
Remark: another data set of the same source

| Variant | effect of a mutation on the interaction |
| --- | --- |
| N270K | with no effect |

Variants of: B2
Details: with trip6_human TRIP6, Q15654

| Variant | effect of a mutation on the interaction |
| --- | --- |
| E368K | with no effect |

Variants of: B2
Details: with trip6_human TRIP6, Q15654
Remark: another data set of the same source

| Variant | effect of a mutation on the interaction |
| --- | --- |
| R503Q | with no effect |

Variants of: B3
Details: with trim1_human MID2, Q9UJV3

| Variant | effect of a mutation on the interaction |
| --- | --- |
| R346W | with no effect |
